Measurements taken from patent US20260097138A1, “BIOMATERIAL COATED NANOSTRUCTURES FOR PHOTOACOUSTIC IMAGING AND PHOTOTHERMAL THERAPY OF TUMOR LESIONS” (OSPEDALE SAN RAFFAELE S.R.L., priority 2022, published 2026).
Blank lines part the entries; values can stand above or below the molecule they belong to. Starred links: 1 amine or outer side, 2 acyl side, 3 side chain; linkers in the order of their positions; H or OH if unused. Positions of bridges follow the written chain, without caps; N, C: chain ends. Non-standard residues stand in square brackets, D forms with d. Residues, ends and D or L forms follow the SMILES beside them. βAsp = O=C(O)[C@H](CC(=O)[*:2])N[*:1]; dPhg = N[C@@H](C(=O)O)c1ccccc1; Phg = N[C@H](C(=O)O)c1ccccc1

What was measured:
[1] = target: human integrin α5 subunit on the surface of human urothelial and bladder carcinoma cells (human) (UniProt P08648); assay: flow cytometry on RT4 bladder carcinoma cells, 5 µg/ml antibody
[2] = target: human integrin α5 subunit on the surface of human urothelial and bladder carcinoma cells (human) (UniProt P08648); assay: flow cytometry on 5637 bladder carcinoma cells, 5 µg/ml antibody
[3] = target: human integrin α5 subunit on the surface of human urothelial and bladder carcinoma cells (human) (UniProt P08648); assay: flow cytometry on RT112 bladder carcinoma cells, 5 µg/ml antibody
[4] = target: human integrin α5 subunit on the surface of human urothelial and bladder carcinoma cells (human) (UniProt P08648); assay: flow cytometry on HBLAK primary urothelial cells, 5 µg/ml antibody
[5] = target: human integrin α5 subunit on the surface of human urothelial and bladder carcinoma cells (human) (UniProt P08648); assay: flow cytometry on HT1376 bladder carcinoma cells, 5 µg/ml antibody
[6] = target: human integrin α5 subunit on the surface of human urothelial and bladder carcinoma cells (human) (UniProt P08648); assay: flow cytometry on PCS-420-010 primary urothelial cells, 5 µg/ml antibody
MB49-Luc cells [7] = assay: Binding of Iso4-Qdot / ARA-Qdot to cells (FACS); format: cell-based, murine; conditions: flow cytometry, 2 h at 37° C.
Description: (§1) The binding of Iso4-Qdot and ARA-Qdot to MB49-Luc and 5637 cells was assessed through FACS and fluorescence microscopy experiments. FACS analysis was carried out as follows: the cells were detached with DPBS containing 5 mM EDTA pH 8.0 (DPBS-E), washed with DPBS, and suspended in 25 mM Hepes buffer, pH 7.4, containing 150 mM sodium chloride, 1 mM magnesium chloride, 1 mM manganese chloride, 1% BSA (binding buffer-1) and Iso4- or ARA-Qdot (range 30-0 nM, 5×10^5 cells/100 μl tube). After 2 h of incubation at 37° C., the cells were washed with binding buffer-1 without BSA and fixed with 4% formaldehyde. Bound fluorescence was detected using a CytoFLEX S cytofluorimeter (Beckman Coulter). The binding of Iso4-Qdot and ARA-Qdot to living 5637 cells was analyzed as follows: 5637 cells were cultured in a 96-well clear bottom black plate (5×10^4 cells/well) for 48 h, 5% CO2, 37° C. The plates were washed with binding buffer-1 and incubated with Iso4-Qdot or ARA-Qdot solution (30 nM in binding buffer-1) for 2 h at 37° C., 5% CO2. The cells were then washed with binding buffer-1, and fixed with 3% paraformaldehyde and 2% sucrose for 20 min. Bound fluorescence was acquired using the Cellomics ArrayScan XTI Studio Scan (Thermo Fischer Scientific) system.

5637 cells [8] = assay: Binding of Iso4-Qdot / ARA-Qdot to cells (FACS, fluorescence microscopy); format: cell-based, human; conditions: flow cytometry and fluorescence microscopy, 2 h at 37° C.
Description: as §1

[9] = target: mouse integrin α5 subunit on the surface of MB49-Luc cells (mouse) (UniProt P11688); assay: flow cytometry on MB49-Luc cells, 5 µg/ml antibody
human integrin α5β1 = target: T1, human integrin α5β1 (Homo sapiens, UniProt P05556+P08648); assay: α5β1 integrin binding assay with HRP conjugates; conditions: for binding of HRP conjugate to plates coated with α5β1: no detergent in buffers, OPD substrate
T1 construct: purchased Immunological Sciences (Rome, Italy)
Description: The final products were called Iso4-HRP and ARA-HRP. The conjugates were diluted (range 0-400 nM) in 25 mM Tris-HCl, pH 7.4, containing 150 mM sodium chloride, 1 mM magnesium chloride, 1 mM manganese chloride and 1% BSA (binding buffer-2) and added to 96-well plate polyvinyl chloride (PVC) microtiter plates (Carlo Erba, cod. FA5280100) coated with or without α5β1 (4 μg/ml) and left to incubate for 2 h. The plates were washed with 25 mM Tris-HCl, pH 7.4, containing 150 mM of sodium chloride, 1 mM of magnesium chloride, 1 mM of manganese chloride, and bound peroxidase was detected by adding a chromogenic solution (o-phenylenediamine dihydrochloride, OPD). The chromogenic reaction was stopped by adding 1 N sulfuric acid. The absorbance at 490 nm was then measured using a microtiter plate reader. The effect of human urine (from a healthy donor) on the binding of Iso4-HRP was studied as described above by mixing Iso4-HRP (300 nM final concentration) and various amounts of urine diluted in binding buffer-2.

[10] = target: human integrin β1 subunit on the surface of human urothelial and bladder carcinoma cells (human) (UniProt P05556); assay: flow cytometry on RT4 bladder carcinoma cells, 5 µg/ml antibody
[11] = target: human integrin β1 subunit on the surface of human urothelial and bladder carcinoma cells (human) (UniProt P05556); assay: flow cytometry on 5637 bladder carcinoma cells, 5 µg/ml antibody
[12] = target: human integrin β1 subunit on the surface of human urothelial and bladder carcinoma cells (human) (UniProt P05556); assay: flow cytometry on RT112 bladder carcinoma cells, 5 µg/ml antibody
[13] = target: human integrin β1 subunit on the surface of human urothelial and bladder carcinoma cells (human) (UniProt P05556); assay: flow cytometry on HBLAK primary urothelial cells, 5 µg/ml antibody
[14] = target: human integrin β1 subunit on the surface of human urothelial and bladder carcinoma cells (human) (UniProt P05556); assay: flow cytometry on HT1376 bladder carcinoma cells, 5 µg/ml antibody
[15] = target: human integrin β1 subunit on the surface of human urothelial and bladder carcinoma cells (human) (UniProt P05556); assay: flow cytometry on PCS-420-010 primary urothelial cells, 5 µg/ml antibody
[16] = target: mouse integrin β1 subunit on the surface of MB49-Luc cells (mouse) (UniProt P09055); assay: flow cytometry on MB49-Luc cells, 5 µg/ml antibody
MB49-Luc cells [17] = assay: Cell adhesion assay on coated microtiter plates; format: cell-based, murine; conditions: MB49-Luc cells; plates coated with 250 μg/ml GNRs
Description: (§2) The plates were washed and blocked with 2% BSA in DMEM or RPMI-1640 (200 μl/well, 1 h). MB49-Luc and 5637 cells were detached with DPBS-E, washed twice with DPBS, and suspended in DMEM or RPMI-1640 containing 0.1% BSA (binding buffer-3), and added to the coated-plates (1.5×10^5 cells/well, 100 μl). After 1-2 h of incubation at 37° C., 5% CO2, the plates were washed with binding buffer-3. Adherent cells were fixed and stained with 0.5% crystal violet in 20% methanol. After washing with water, the dye was extracted from cells using a 10% acetic acid solution (140 μl/well) and the absorbance at 570 nm was measured using a microplate reader.

5637 cells [18] = assay: Cell adhesion assay on coated microtiter plates; format: cell-based, human; conditions: plates coated with 250 μg/ml GNRs
Description: as §2

[19] = test system: MB49-Luc derived orthotopic bladder tumor; assay: PAI of orthotopic MB49-Luc bladder tumor after intravesical instillation; format: in vivo, mice; conditions: intravesical co-administration
Description: Murine orthotopic bladder tumor model: All procedures and studies involving mice were approved by the Institutional Animal Care and Use Committee of San Raffaele Scientific Institute and performed according to the prescribed guidelines (IACUC, approval number 942). Female albino C57BL/6J mice (9 weeks old, weighing about 20 g, Charles River Laboratories, Italy) were anesthetized with ketamine (80 mg/kg) and xylazine (15 mg/kg) and kept in dorsal position. Using a 24-gauge catheter, the bladder of each mouse was emptied and instilled with or without MB49-Luc cells (10^5 cells/100 μl in DPBS). Thirty minutes later the catheter was removed, and mice were allowed to recover and returned to their cage. Tumor growth was monitored by measuring the tumor volume through US imaging (see below) and in vivo bioluminescent quantification after administration of luciferin (15 mg/kg, intra peritoneum) using the non-invasive In Vivo Imaging System (IVIS, PerkinElmer, USA).
US and PAI of GNRs@Chit and GNRs@Chit-Iso4: High-resolution US and PA imaging have been acquired using the Vevo LAZR-X platform (FUJIFILM VisualSonics, Inc., Toronto, ON, Canada). The imaging platform includes a high frequency US system (Vevo 3100) combined with an Nd:YAG nano-second pulsed laser with repetition rate of 20 Hz. The linear US transducer array Mx 550D consists of 256 elements with a nominal center frequency of 40 MHz (25-55 MHz bandwidth) and a spatial resolution of 40 μm with a maximum imaging depth of 15 mm. Light from the laser is delivered to the tissue through optical fibers mounted on either side of the transducer. During volumetric US-PA acquisitions, a stepper motor is used for the linear translation of the US transducer and optical fibers along the sample. The linear stepper motor moves in steps of a minimum of 0:1 mm while capturing 2-D parallel images, for a maximum 3D range distance of 6.4 cm.
3D B mode scan was carried out for in vitro (drop) and in vivo (mouse bladder) studies. The photoacoustic spectra between 680 nm and 970 nm were scanned with a step size of 5 nm; for the in vivo studies (murine bladder) the 3D multispectral PA scans were acquired selecting PA spectral curve of tissue components melanin, deoxy- and oxy-generated blood, and GNRs; the processed wavelengths (680; 722; 764; 810; 924; 970 nm) were automatically selected from the spectral curve used to spectrally unmix the GNRs signal from other endogenous tissue chromophore signals such as oxy, deoxy hemoglobin. The algorithm reported by Luke et al was used to select these wavelengths which is ideal for separating the signal from GNRs from other endogenous absorbers.
Data analyses were conducted using the Vevo® Lab software; volumes of interest were obtained by manually drawing Volumes of Interest (VOIs) on 3D B-mode images. GNRs, melanin, oxy- and deoxy-hemoglobin content were estimated through spectral unmixing analyses of the spectroscopic data.

[20] = target: α5β1 integrin on human 5637 bladder cancer cells (human, UniProt P08648 42-1049; P05556 21-798); assay: cell-based or functional assay
[21] = target: α5β1 integrin on murine MB49-Luc bladder cancer cells (mouse, UniProt P11688 45-1053; P09055 21-798); assay: cell-based or functional assay
Chain of α5β1 integrin on murine MB49-Luc bladder cancer cells (P11688 45-1053, chain 1 of 2): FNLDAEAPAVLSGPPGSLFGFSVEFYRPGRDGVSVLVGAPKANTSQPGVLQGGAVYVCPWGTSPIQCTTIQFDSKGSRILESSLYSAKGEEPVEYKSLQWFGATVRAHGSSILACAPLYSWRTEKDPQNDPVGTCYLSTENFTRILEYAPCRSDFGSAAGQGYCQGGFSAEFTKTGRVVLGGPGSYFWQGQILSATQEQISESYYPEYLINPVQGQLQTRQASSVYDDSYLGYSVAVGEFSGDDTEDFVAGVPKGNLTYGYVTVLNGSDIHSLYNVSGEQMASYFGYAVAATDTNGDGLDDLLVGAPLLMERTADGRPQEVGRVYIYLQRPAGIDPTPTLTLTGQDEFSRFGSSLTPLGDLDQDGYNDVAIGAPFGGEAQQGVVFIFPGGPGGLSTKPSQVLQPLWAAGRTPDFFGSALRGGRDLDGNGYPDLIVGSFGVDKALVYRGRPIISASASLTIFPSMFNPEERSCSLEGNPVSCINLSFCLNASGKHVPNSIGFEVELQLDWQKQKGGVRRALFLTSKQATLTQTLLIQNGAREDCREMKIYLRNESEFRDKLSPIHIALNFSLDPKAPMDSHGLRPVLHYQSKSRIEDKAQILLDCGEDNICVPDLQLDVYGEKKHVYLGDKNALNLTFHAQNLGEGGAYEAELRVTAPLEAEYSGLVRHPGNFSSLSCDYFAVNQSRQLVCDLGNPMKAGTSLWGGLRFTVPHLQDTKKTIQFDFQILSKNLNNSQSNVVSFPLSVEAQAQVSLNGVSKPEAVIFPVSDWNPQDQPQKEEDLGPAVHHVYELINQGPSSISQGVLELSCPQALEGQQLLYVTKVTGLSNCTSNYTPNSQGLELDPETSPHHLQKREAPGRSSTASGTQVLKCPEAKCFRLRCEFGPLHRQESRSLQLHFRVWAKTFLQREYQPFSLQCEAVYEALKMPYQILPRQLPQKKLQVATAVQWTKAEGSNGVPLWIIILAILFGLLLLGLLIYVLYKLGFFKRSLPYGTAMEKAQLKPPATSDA
Chain of α5β1 integrin on murine MB49-Luc bladder cancer cells (P09055 21-798, chain 2 of 2): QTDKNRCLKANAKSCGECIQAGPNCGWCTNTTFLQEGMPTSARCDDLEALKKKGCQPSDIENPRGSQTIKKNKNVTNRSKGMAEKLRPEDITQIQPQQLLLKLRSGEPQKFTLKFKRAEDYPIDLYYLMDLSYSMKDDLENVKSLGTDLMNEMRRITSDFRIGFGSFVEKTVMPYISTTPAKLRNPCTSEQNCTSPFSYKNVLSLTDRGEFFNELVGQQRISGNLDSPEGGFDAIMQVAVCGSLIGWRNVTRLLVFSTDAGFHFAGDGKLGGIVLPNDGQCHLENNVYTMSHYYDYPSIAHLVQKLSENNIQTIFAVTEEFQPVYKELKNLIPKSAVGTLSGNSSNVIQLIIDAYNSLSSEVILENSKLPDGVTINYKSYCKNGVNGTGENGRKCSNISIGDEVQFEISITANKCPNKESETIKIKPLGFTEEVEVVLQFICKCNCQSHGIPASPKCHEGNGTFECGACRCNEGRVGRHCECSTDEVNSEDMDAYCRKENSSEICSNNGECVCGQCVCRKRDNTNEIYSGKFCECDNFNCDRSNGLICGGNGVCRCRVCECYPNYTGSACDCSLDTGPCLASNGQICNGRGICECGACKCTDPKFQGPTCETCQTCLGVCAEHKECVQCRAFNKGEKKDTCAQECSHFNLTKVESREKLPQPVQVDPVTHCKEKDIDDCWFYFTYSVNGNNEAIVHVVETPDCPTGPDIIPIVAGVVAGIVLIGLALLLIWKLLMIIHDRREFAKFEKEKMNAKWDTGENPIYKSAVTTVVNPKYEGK

Chain of human integrin α5 subunit on the surface of human urothelial and bladder carcinoma cells (human) (P08648 42-1049): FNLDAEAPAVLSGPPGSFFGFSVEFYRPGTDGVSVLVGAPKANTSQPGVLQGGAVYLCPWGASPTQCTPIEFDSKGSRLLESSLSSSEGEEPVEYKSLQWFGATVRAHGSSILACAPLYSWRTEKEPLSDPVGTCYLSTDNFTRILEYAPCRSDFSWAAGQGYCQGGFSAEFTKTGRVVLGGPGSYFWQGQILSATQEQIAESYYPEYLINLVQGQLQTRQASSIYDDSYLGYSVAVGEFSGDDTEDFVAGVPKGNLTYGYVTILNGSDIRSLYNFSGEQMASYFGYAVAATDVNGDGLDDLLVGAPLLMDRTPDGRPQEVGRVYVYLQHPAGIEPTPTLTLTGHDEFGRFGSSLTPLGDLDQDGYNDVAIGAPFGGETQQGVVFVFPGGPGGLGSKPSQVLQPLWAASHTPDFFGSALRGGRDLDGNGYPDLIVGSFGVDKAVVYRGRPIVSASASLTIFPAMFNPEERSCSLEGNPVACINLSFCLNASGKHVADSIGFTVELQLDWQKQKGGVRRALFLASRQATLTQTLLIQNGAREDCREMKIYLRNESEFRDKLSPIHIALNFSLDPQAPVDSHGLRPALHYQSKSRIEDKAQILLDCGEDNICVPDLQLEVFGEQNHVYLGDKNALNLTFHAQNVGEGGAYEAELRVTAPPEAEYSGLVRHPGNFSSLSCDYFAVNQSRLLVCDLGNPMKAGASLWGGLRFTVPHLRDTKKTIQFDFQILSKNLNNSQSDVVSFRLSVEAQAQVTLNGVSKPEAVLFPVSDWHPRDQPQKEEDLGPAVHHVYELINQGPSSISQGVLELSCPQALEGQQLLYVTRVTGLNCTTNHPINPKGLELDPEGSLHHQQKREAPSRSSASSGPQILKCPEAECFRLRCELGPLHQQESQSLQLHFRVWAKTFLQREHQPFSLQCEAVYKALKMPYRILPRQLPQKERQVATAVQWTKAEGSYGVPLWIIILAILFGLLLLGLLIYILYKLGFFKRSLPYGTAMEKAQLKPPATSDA
Chain of human integrin β1 subunit on the surface of human urothelial and bladder carcinoma cells (human) (P05556 21-798): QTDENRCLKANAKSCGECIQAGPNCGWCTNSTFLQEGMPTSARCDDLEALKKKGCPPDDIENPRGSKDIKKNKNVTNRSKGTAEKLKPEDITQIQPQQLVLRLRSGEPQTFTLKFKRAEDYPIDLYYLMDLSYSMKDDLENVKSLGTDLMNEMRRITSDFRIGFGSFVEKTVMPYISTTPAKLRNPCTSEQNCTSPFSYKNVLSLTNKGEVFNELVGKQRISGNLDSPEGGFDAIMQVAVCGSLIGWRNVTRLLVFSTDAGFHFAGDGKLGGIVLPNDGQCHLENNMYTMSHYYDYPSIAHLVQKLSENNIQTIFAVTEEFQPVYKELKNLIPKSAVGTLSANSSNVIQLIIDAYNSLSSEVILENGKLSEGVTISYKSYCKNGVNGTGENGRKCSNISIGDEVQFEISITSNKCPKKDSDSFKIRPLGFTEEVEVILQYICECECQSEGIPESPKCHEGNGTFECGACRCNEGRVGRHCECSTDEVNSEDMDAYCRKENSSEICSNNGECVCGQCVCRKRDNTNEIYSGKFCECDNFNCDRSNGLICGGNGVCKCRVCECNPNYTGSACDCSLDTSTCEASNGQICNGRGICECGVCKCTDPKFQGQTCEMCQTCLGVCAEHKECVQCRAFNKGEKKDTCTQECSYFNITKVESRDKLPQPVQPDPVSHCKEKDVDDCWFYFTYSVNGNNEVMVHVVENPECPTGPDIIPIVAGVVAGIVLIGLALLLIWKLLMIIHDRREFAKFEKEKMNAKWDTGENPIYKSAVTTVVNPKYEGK
T1 sequence (P08648 42-894 limits assumed): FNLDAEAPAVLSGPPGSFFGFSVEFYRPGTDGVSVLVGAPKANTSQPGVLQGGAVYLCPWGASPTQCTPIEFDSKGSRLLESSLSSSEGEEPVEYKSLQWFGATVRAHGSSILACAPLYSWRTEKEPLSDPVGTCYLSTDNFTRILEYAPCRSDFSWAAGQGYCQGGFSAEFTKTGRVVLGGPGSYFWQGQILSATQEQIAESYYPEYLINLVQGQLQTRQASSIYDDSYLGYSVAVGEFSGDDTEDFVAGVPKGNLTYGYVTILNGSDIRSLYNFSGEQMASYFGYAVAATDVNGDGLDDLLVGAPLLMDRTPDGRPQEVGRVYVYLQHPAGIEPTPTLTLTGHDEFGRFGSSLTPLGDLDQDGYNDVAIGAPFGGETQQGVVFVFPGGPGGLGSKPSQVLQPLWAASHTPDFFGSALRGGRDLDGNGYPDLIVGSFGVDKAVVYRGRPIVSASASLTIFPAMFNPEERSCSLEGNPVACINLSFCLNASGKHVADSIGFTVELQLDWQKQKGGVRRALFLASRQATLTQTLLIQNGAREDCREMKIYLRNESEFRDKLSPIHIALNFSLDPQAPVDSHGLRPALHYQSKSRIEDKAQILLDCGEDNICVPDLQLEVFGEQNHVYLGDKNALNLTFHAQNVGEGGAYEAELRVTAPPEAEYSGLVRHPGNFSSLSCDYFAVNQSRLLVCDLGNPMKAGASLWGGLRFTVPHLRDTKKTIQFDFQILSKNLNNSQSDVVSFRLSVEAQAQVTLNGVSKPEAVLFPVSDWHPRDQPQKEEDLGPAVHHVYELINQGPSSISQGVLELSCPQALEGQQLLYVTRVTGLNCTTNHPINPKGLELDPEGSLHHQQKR
T1 sequence (P08648 895-1049 partner limits assumed): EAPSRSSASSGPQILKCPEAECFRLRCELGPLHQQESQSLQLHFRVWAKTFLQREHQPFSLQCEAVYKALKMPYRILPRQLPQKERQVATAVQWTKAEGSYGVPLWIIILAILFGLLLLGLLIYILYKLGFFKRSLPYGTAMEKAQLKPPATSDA
T1 sequence (P05556 21-798): as the sequence (P05556 21-798) above
Chain of α5β1 integrin on human 5637 bladder cancer cells (P08648 42-1049, chain 1 of 2): as the sequence (P08648 42-1049) above
Chain of α5β1 integrin on human 5637 bladder cancer cells (P05556 21-798, chain 2 of 2): as the sequence (P05556 21-798) above
Chain of mouse integrin β1 subunit on the surface of MB49-Luc cells (mouse) (P09055 21-798): as the sequence (P09055 21-798, chain 2 of 2) above
Chain of mouse integrin α5 subunit on the surface of MB49-Luc cells (mouse) (P11688 45-1053): as the sequence (P11688 45-1053, chain 1 of 2) above

Molecule: ARA-Qdot: c(CGARAG) peptide coupled to Qdot, negative control (cyclo(CGARAG); not fully specified (residue 1); also: coupled to Qdot605 quantum dot via Cys thiol)
binding of Qdot conjugate to cells (MB49-Luc cells [7]): but not the ARA-Qdot, bound these cells | binding of Qdot conjugate to cells (5637 cells [8]): but not the ARA-Qdot, bound these cells

Molecule: anti-α5 integrin hamster monoclonal antibody, clone HMα5-1
Fold (mean fluorescence intensity over isotype control) [9]: 3.79 fold

Molecule: Iso4-Qdot: Iso4 coupled to fluorescent nanoparticles (Quantum Dots, Qdot) via the sulfhydryl group of the cysteine
binding of Qdot conjugate to cells (MB49-Luc cells [7]): bound these cells | binding of Qdot conjugate to cells (5637 cells [8]): bound these cells

Molecule: ARA-HRP: HRP control conjugate using the ARA peptide instead of Iso4
binding of HRP conjugate to plates coated with α5β1 (human integrin α5β1): but not ARA-HRP, could bind α5β1 in a dose dependent manner

Molecule: N=C(N)NCCC[C@@H]1NC(=O)CNC(=O)C[C@@H](C(=O)O)NC(=O)[C@H](c2ccccc2)NC(=O)[C@H](CS)NC(=O)CNC1=O [Iso4, c(CphgisoDGRG), reference compound] (GRGC[Phg]D-OH; lactam N-6)
effect of excess free peptide on cell adhesion to GNRs@Chit-Iso4-coated plates (MB49-Luc cells [17]): completely inhibited cell adhesion | effect of excess free peptide on cell adhesion to GNRs@Chit-Iso4-coated plates (5637 cells [18]): completely inhibited cell adhesion | effect of co-administered excess free peptide on binding of GNR@Chit-Iso4 to MB49-Luc tumors [19]: reduced

B1: GNRs@Chit-Iso4 (gold nanorods coated with thiolated chitosan, carrying Iso4 via maleimide-PEG12-NHS) (other)
peptide: cyclo(C[dPhg][βAsp]GRG)
modifications: not fully specified (residue 1); also: Cys thiol coupled via maleimide-PEG12-NHS linker to thiolated-chitosan-coated gold nanorods
effective concentration 50 (EC50) of cell adhesion to plates coated with GNRs@Chit-Iso4 [20]: 1.3 µg/mL | effective concentration 50 (EC50) of cell adhesion to plates coated with GNRs@Chit-Iso4 [21]: 0.73 µg/mL

Further lines, with some results ahead:

Fold (median fluorescence intensity over isotype control) [1]: 6 fold | Fold (median fluorescence intensity over isotype control) [2]: 1.9 fold | Fold (median fluorescence intensity over isotype control) [3]: 5.8 fold | Fold (median fluorescence intensity over isotype control) [4]: 2.1 fold | Fold (median fluorescence intensity over isotype control) [5]: 4.1 fold | Fold (median fluorescence intensity over isotype control) [6]: 1.5 fold
Molecule: anti-α5 integrin mouse monoclonal antibody, clone P1D6

recovery of binding to α5β1 in human urine (human integrin α5β1; in 90% of urine, Iso4-HRP 300 nM): about 55%
Molecule: Iso4-HRP: Iso4 conjugated to maleimide-activated horseradish peroxidase via thiol group
binding of HRP conjugate to plates coated with α5β1 (human integrin α5β1): could bind α5β1 in a dose dependent manner

Fold (median fluorescence intensity over isotype control) [10]: 18.6 fold | Fold (median fluorescence intensity over isotype control) [11]: 40.5 fold | Fold (median fluorescence intensity over isotype control) [12]: 38.7 fold | Fold (median fluorescence intensity over isotype control) [13]: 0.8 fold | Fold (median fluorescence intensity over isotype control) [14]: 11.9 fold | Fold (median fluorescence intensity over isotype control) [15]: 1.2 fold
Molecule: anti-β1 integrin mouse monoclonal antibody, clone P5D2

Fold (mean fluorescence intensity over isotype control) [16]: 8.02 fold
Molecule: anti-β1 integrin hamster monoclonal antibody, clone HMβ1-1
